# From paper PMC7855945 (Cellular microbiology, 2020)
# Target: the molecule itself
# Experiment: SEC
protein,measurement,value
"recombinant A. fumigatus Hsp90 (rAfHsp90), full length, 6×His-tagged (natural protein) not shown",stoichiometry N,2
